Measured values reported in the supplement of paper PMC9112550, “Optimization of the antimicrobial peptide Bac7 by deep mutational scanning” (BMC Biology, 2022).

test system: Escherichia coli TOP10; assay: shrunken log2 fold change of peptide-encoding DNA abundance (4.5 h post-induction vs induction); higher = less antimicrobial activity (less host growth inhibition); details: time post-induction: 4.5 h; library: site-saturation at positions 5, 18, 19, 20
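Further: peptides expressed intracellularly from a pBAD plasmid library in pooled LB shake-flask culture, induced with 0.3% L-arabinose, DNA abundance read by NGS, three biological replicates, DESeq2 with apeglm shrinkage.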

Sequence | shrunken log2 fold change
RRIRGRPPRLPRPRPRPIYKPRP | -0.071
RRIRERPPRLPRPRPRPKGKPRP | -0.0014
RRIRHRPPRLPRPRPRPNQKPRP | -0.0319
RRIRGRPPRLPRPRPRPPVWPRP | 0.861
RRIRERPPRLPRPRPRPIGFPRP | -0.134
RRIRYRPPRLPRPRPRPYTCPRP | -0.00145
RRIRHRPPRLPRPRPRPLKFPRP | -0.298
RRIRVRPPRLPRPRPRPLYNPRP | -0.56
RRIRRRPPRLPRPRPRPYKGPRP | 0.0251
RRIRGRPPRLPRPRPRPHQYPRP | -0.226
RRIRFRPPRLPRPRPRPMAGPRP | -0.111
RRIRWRPPRLPRPRPRPWGPPRP | 0.384
RRIRGRPPRLPRPRPRPGRMPRP | 0.727
RRIRRRPPRLPRPRPRPAEKPRP | 0.225
RRIRFRPPRLPRPRPRPDFYPRP | -0.105
RRIRFRPPRLPRPRPRPQQFPRP | 0.0682
RRIRFRPPRLPRPRPRPDEGPRP | 0.101
RRIRRRPPRLPRPRPRPRRRPRP | 0.778
RRIRARPPRLPRPRPRPSYCPRP | -0.311
RRIRCRPPRLPRPRPRPKCYPRP | -0.353

Sequence | shrunken log2 fold change
RRIRSRPPRLPRPRPRPTLEPRP | 0.474
RRIRWRPPRLPRPRPRPRVHPRP | 0.341
RRIRQRPPRLPRPRPRPREPPRP | 0.0406
RRIRARPPRLPRPRPRPDNTPRP | -0.214
RRIRARPPRLPRPRPRPIMKPRP | 0.102
RRIRLRPPRLPRPRPRPLRCPRP | -0.0152
RRIRQRPPRLPRPRPRPFYYPRP | -0.59
RRIRWRPPRLPRPRPRPNDIPRP | -0.565
RRIRHRPPRLPRPRPRPAAFPRP | 0.068
RRIRPRPPRLPRPRPRPMVFPRP | -0.166
RRIRVRPPRLPRPRPRPRNFPRP | -0.275
RRIRKRPPRLPRPRPRPWCHPRP | -0.15
RRIRQRPPRLPRPRPRPNDYPRP | -0.179
RRIRWRPPRLPRPRPRPCTNPRP | -0.0757
RRIRDRPPRLPRPRPRPVHRPRP | 0.0594
RRIRVRPPRLPRPRPRPIKHPRP | -0.505
RRIRWRPPRLPRPRPRPRGCPRP | 0.961
RRIRVRPPRLPRPRPRPECNPRP | -0.195
RRIRFRPPRLPRPRPRPWAYPRP | -0.201
RRIRFRPPRLPRPRPRPQFHPRP | -0.839

Sequence | shrunken log2 fold change
RRIRRRPPRLPRPRPRPMWQPRP | 0.381
RRIRVRPPRLPRPRPRPLKGPRP | -0.211
RRIRMRPPRLPRPRPRPGFGPRP | 0.904
RRIRRRPPRLPRPRPRPVHPPRP | 0.348
RRIRIRPPRLPRPRPRPSAIPRP | -0.0599
RRIRCRPPRLPRPRPRPNQIPRP | -0.367
RRIRDRPPRLPRPRPRPIWPPRP | 0.0998
RRIRDRPPRLPRPRPRPTLPPRP | -0.027
RRIRSRPPRLPRPRPRPAPFPRP | 0.201
RRIRMRPPRLPRPRPRPMRSPRP | 1.67
RRIRGRPPRLPRPRPRPPQPPRP | 1.03
RRIRARPPRLPRPRPRPNDQPRP | 0.226
RRIRSRPPRLPRPRPRPVVNPRP | 0.0966
RRIRMRPPRLPRPRPRPMDMPRP | 0.482
RRIRERPPRLPRPRPRPFFGPRP | -0.217
RRIRTRPPRLPRPRPRPWQNPRP | -0.0181
RRIRWRPPRLPRPRPRPSMEPRP | 0.0397
RRIRRRPPRLPRPRPRPVGHPRP | 0.0496
RRIRSRPPRLPRPRPRPYTYPRP | -0.0783
RRIRIRPPRLPRPRPRPIIWPRP | -0.167
